# Laboratory results as given in patent US20070196354A1, “Method of treating diabetes by inhibiting degradation of at least one of crebl1, atf6, and hnf-4 alpha by htra” (priority 2003, published 2007).
# T1: HNF-4α (Homo sapiens, UniProt P41235)
# T1 construct: expressed in transfected cells; host or cells: HEK293T
# T1 sequence (P41235 10-474): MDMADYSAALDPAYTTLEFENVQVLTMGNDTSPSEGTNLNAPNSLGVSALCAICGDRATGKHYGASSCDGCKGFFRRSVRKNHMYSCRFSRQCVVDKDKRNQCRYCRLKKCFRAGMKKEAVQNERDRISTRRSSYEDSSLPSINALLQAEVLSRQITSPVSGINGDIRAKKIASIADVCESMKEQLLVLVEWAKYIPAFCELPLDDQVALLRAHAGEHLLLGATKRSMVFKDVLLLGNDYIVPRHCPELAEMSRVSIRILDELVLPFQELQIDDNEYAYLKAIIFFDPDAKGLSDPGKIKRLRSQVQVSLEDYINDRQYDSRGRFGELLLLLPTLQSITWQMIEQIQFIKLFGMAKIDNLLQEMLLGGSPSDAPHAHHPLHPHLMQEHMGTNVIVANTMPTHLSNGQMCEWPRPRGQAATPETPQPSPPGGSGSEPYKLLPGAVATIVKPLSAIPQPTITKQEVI
# B1: mature HtrA2: SEQ ID NO: 4; mature protein generated from HtrA2 precursor by cleavage of N-terminal 133 residues, has protease activity (protein, listed as Homo sapiens)
# chain: MAVPSPPPASPRSQYNFIADVVEKTAPAVVYIEILDRHPFLGREVPISNGSGFVVAADGLIVTNAHVVADRRRVRVRLLSGDTYEAVVTAVDPVADIATLRIQTKEPLPTLPLGRSADVRQGEFVVAMGSPFALQNTITSGIVSSAQRPARDLGLPQTNVEYIQTDAAIDFGNSGGPLVNLDGEVIGVNTMKVTAGISFAIPSDRLREFLHRGEKKNSSSGISGSQRRYIGVMMLTLSPSILAELQLREPSFPDVQHGVLIHKVILGSPAHRAGLRPGDVILAIGEQMVQNAEDVYEAVRTQSQLAVQIRRGRETLTLYVTPEVTE
# modifications: mature HtrA2
# Biological target: T1, HNF-4α
# Assay: In vitro protease assay, HNF-4α captured on resin
# Assay type: biochemical
# Details: 50 μg/ml, 37° C., overnight (O/N), anti-FLAG detection
# Procedure: HNF-4α captured on the resin by immunoprecipitation was used in the experiments in order to eliminate the influence of proteinaceous impurities contained in the HNF-4α soluble fraction. More specifically, 300 μl of HNF-4α soluble fraction was dispensed to six tubes (Nos. 1 to 6), followed by adding 20 μl of protein G sepharose 4 FF (Amersham) of 50% slurry that had been subjected to blocking with BSA, to each of tubes, subjected to overturned mixing at 4° C. for 1 hour, and then subjected to centrifugation (10,000 rpm, 10 sec, 4° C.) to collect the supernatant, and thus the pre-treatment (pre-clean) was performed. The resultant supernatant was mixed with 0.4 μl (2 μg) of anti-FLAG antibody (Sigma) by overturned mixing at 4° C. for 3 hours, followed by adding 20 μl of protein G sepharose 4 FF that had been subjected to blocking with BSA, and then subjected to overturned mixing at 4° C. overnight. Thus, HNF-4α was captured on protein G sepharose 4 FF. […]
molecule,measurement,value
B1,degradation of HNF-4α (band by western blotting),the band of HNF-4α was reduced significantly
